assay: yeast display, Sf9 membrane polyspecificity reagent, FACS + sequencing; frameworks hold sequencing errors
Outline: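 Synthetic nanobody libraries on Saccharomyces cerevisiae BJ5465 were galactose-induced for 36–48 hours, stained 1 hour at 4 °C with 10% biotinylated, detergent-solubilized Sf9 membrane reagent and enriched on streptavidin microbeads. FACS then separated cells into low and high (top ~1%) gates by anti-HA (expression) and streptavidin (reagent binding) fluorescence. Genes were colony-PCR amplified, MiSeq 2 × 250 sequenced and CDR-length filtered. A clone's polyreactivity label is that of its gate of origin.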

Sequence	polyreactivity (PSR sort gate)
QVQLVESGGGLVQAGGSLRLSCAASGFTLRGNAMGWYRQAPGKERELVAAISTGGSTYYADSVKGRFTISRDNAKNTVYLQMNSLKPEDTAVYYCARRGWFHYRYYYWGQGTQVTVSS	high polyreactivity
QVQLVESGGGLVQAGGSLRLSCAASGFTLRKYSMGWYRQAPGKEREFVATISSRAASTYYADSVKGRFTISRDNAKNTVYLQMISLKPEDTAVYYCNKVSPYRGYYWGQGTQVTVSS	high polyreactivity
QVQLVESGGGLVQAGGSLRLSCAASGFTLSRYAMGWYRQAPGKERELVAAIRWSGGSTYYADSVKGRFTISRDNAKNTVYLQMNSLKPEDTAVYYCATRYYLKFLDGYNYWGQGTQVTVSS	high polyreactivity
QVQLVESGGGLVQAGGSLRLSCAASGFTLTAYAMGWYRQARGKEREFVAAISTSGTRTYYADSVKGRFTISRDNAKNTVYLQMNSLKPEDTAVYYCGARYSGYQYWKFNYWGQGTQVTVSS	high polyreactivity
QVQLVESGGGLVQAGGSLRLSCAASGFTLVGYAMGWYRQAPGKERELVAAISSGGRTKYADSVKGRFTFSRDNAKNTVYLQMNSLKPEDTAVYYCKAVFTRGVTQYDHYYWGQGTQVTVSS	high polyreactivity
QVQLVESGGGLVQAGGSLRLSCAASGFTLWLNAMGWSRQAPGKERELVAAITTSDDGTYYADSVNGRFTISRDTAKNTVYLQMNSLKPEDTAVYYCAADYYSVLYDYWGQGTQVTVSS	low polyreactivity
QVQLVESGGGLVQAGGSLRLSCAASGFTLYEYAMGWYRQAPGKERELVAAISSAGNTNYADSVKGRFTISRDNAKNTVYLQLNSLKPEDTAVYYCAKYRYDYTKTEGGYWGQGTQVTVSS	low polyreactivity
QVQLVESGGGLVQAGGSLRLSCAASGFTLYGYAMGWYRQAPGKERELVAGIRYSGGRTYYADSVKGRFTISRDNAKNTVYLQMNSLKPEDTAVYYCAADGGYWRGTGYEYWGQGTQVTVSS	high polyreactivity
QVQLVESGGGLVQAGGSLRLSCAASGFTLYGYTMGWSRQAPGKERELVAAITVSGTSTYYADSVKGRFTISRDNAKYTVSLQMNSLKPEDTAVYYCAARPRRRYYGYDSWGQGTQVSVSS	high polyreactivity
QVQLVESGGGLVQAGGSLRLSCAASGFTLYGYTMGWYRQAPGKERELVAAISGSGGRTYYADSVKGRFTISRDNAKNTVYLQMNSLKPEDTAVYYCAARHHPEYYYWGQGTQVTVSS	high polyreactivity
QVQLVESGGGLVQAGGSLRLSCAASGFTLYNNAMGWYRQAPGKERELVARISGSGGSTYYADSVKGRFTISRDNAKNTVYLQMNSLKPEDTAVYYCNARATYVPTYGYTHWYNYWGQGTQVTVSS	low polyreactivity
QVQLVESGGGLVQAGGSLRLSCAASGFTLYPYAKGWYRQAPGKARELVAAISWSVGSTRYADSVKGRFTISRDNAKNTVYLQMNSLKPEDTAVYYCAARPHGRFSQLRVDWGQGTQVTVSS	low polyreactivity
QVQLVESGGGLVQAGGSLRLSCAASGFTLYRYAMGWYIQAPGKERELVAAISKRGASSYYADSVKGRFTISRDNAKNTVYLQMNSLKPEDTAVYYCAATISRAYKPVKGHYYLGMDYWGQGTQVTVSS	high polyreactivity
QVQLVESGGGLVQAGGSLRLSCAASGFTLYRYAMGWYRQAPGKERELVAAISKRGATSYYADSVKGRFTISRDNAKNTVYLQMNSLKPEDTAVYYCAATISRAYKPVKGHYYLGMDYWGQGTQVTVSS	high polyreactivity
QVQLVESGGGLVQAGGSLRLSCAASGFTLYSYAMGWYRQAPGKERELVAAISWSGTRTYYADTVKGRFTISRDNAKNTVYLQMNSLKPEDTAVYYCAARGYRYGYGYWGQCTQVTVSS	high polyreactivity
QVQLVESGGGLVQAGGSLRLSCAASGFTLYYYAMGWYRQAPGKERELVAAISTRGGRTYYADSVKGRFTISRDNAKNTVYLQINSLKPEDTAVYYCAAAFSLKSLNTRWTWSRYYYWGQGTQVTVSS	high polyreactivity
QVQLVESGGGLVQAGGSLRLSCAASGFTLYYYAMGWYRQAPGKERELVAAISYSGGTTYYADSVKGRFTISRDNAKYTVSLQMNSLKPEDTAVYYCAAEVGGYWADEYLGYDYWGQGTQVTVSS	low polyreactivity
QVQLVESGGGLVQAGGSLRLSCAASGFTSDGYAMGWYRQAPGKERELVAAISWRGGSTYYADSVKGRFTISRDNAKNTVYLQMNSLKPEDTAVYYCAKDYYYGLEHYGYWGQGTQVTVSS	low polyreactivity
QVQLVESGGGLVQAGGSLRLSCAASGFTSGYNVMGWYRQEPGKERELVAAISWRGTSTYYADSVKGRFTISRDNAKNTVYLQMNSLKPEDTAVYYCAADRYWRLSGYEYWGQGTQVTVSS	high polyreactivity
QVQLVESGGGLVQAGGSLRLSCAASGFTSLGNAMGWYRQAPGKERELVAAISRSGGRTYYADSVKGRFTISRDNAKNTVYLQMNSLKPEDTAVYYCNAVRLYGQGGDYWGQGTQVTVSS	high polyreactivity
QVQLVESGGGLVQAGGSLRLSCAASGFTSPTAMGWYRQAPGKVRELVADISVGDGSTYYADSVKGRFTISRDNAKNTVYLQMNSLKREDTAVYYCAAEYWLYWYQDGFGFDYWGQGTQVTVSS	high polyreactivity
QVQLVESGGGLVQAGGSLRLSCAASGFTSRLYAMGWYRQAPGKEREFVAAISWDGTRTYYADSVKGRFTISRDNAKNTVYLQMNSLKPEDTAVYYCNARRRQWQARYDYWGQGTQITVSS	high polyreactivity

Sequence	polyreactivity (PSR sort gate)
QVQLVESGGGLVQAGGSLRLSCAASGFTSSINAMGWYRQEPGKERELVAAIRSGGSTNYADSVKGRFTISRDNAKNTVYLQMNSLKPEDTAVYYCAAVTRVYGKTMGYWGQGTQVTVSS	high polyreactivity
QVQLVESGGGLVQAGGSLRLSCAASGFTVDYYAMGWYLQAPGKERELVAAISSSGGSTYYADSVKGRFTISRDNAKNTVYLLMNSLKPEDTAVYYCATGHSKQYDYWGQGTQVTVSS	high polyreactivity
QVQLVESGGGLVQAGGSLRLSCAASGFTVFYNAMGWYRQAPGKERELVAAITARGGGTYYADSVKGRFTISRDNAKNTVYLQMNSLKPEDTAVYYCAADSFIPPYDHWGQGTQVTVSS	low polyreactivity
QVQLVESGGGLVQAGGSLRLSCAASGFTVNNNGMGWYIQAPGKERELVASISSRTTSTYYADSVKGRFTFSRDKAKNTDYFQTNSLKPEDTAVYYCAAQAWWDGEYDYWGQGTQVTVSS	high polyreactivity
QVQLVESGGGLVQAGGSLRLSCAASGFTVRYYAMGWYRQAPGKERELVAAISWSGGSTYYADSVKGRFTISRDNAKNTVYLQMNSLKPEDTAVYYCNRETSPKVYYPNDYWGQGTQVTVSS	low polyreactivity
QVQLVESGGGLVQAGGSLRLSCAASGFTVSYYVMGWYRQAPGKERELVAGISWSGVSTYYADSVKGRFTISRDNAKNTVYLQMNSLKPEDTAVYYCAAGYDFSFFVPVRYTEYDYWGQGTQVTVSS	high polyreactivity
QVQLVESGGGLVQAGGSLRLSCAASGFTVTRYAMGWYRQAPGKERELVAAITRSGSSTSYADSVKGRFTISRDNAKNTVSLQINSLKPEDTAVYYCAARLHSPRYRYDYWGQGTQVTVSS	high polyreactivity
QVQLVESGGGLVQAGGSLRLSCAASGFTYDNYAMGWYRQAPGKERELVAAIRRSGSRTYYPDSVKGRFTISRDNAKNTVYLQMNSLKPEDTAVYYCAAVWYRLYGYCGQGTQVTVSS	low polyreactivity
QVQLVESGGGLVQAGGSLRLSCAASGFTYGVYAMGWYRPAPGKERELVAAISRRGTSTYYADSVKGRFTISRDNAKNTVYLQMNSLKPEDTAVYFCNARRYQVTVDHWGQGTQVTVSS	high polyreactivity
QVQLVESGGGLVQAGGSLRLSCAASGFTYKYYAMGWYRQAPGKERELVAAITRGGDTYYADSVKGRFSISRDNAKNTVYLQMNSLKPEDTAVYYCNTASDKRAFDYWGQGTQVTVSS	low polyreactivity
QVQLVESGGGLVQAGGSLRLSCAASGFYNTMGWYRQAPGKERELVAAISTGGITNYADSVKGRFTISRDNAKNTVYVLMNSLKPEDTAVYYCPADGYSTVSSSYAYWGQGTQVTVSS	low polyreactivity
QVQLVESGGGLVQAGGSLRLSCAASGFYYYAMGWYRQAPGKERELVAVITYSGGSTYYADSVKGRFTISRDNAKNTVYLQMNSVKPEDTAVYYCAADYRPGYDYWGQGTQVTVSS	low polyreactivity
QVQLVESGGGLVQAGGSLRLSCAASGGAFRYYTMGWYRPAPGKDRELVASISGGGRTYYADSVKGRFTISRDNAKNSVYLQMNSLKPEDTAVYYCNARNRVYYTMSGFGYLGQGTQVTVSS	high polyreactivity
QVQLVESGGGLVQAGGSLRLSCAASGGICRVYAMGWYRQAPGKERELVAAISRSGSSTYYADSVKGRFTISRDNAKNTVYLQMNSLKPEDTAVYYCNAYSQYWLGNNYWGQGTQVTVSS	high polyreactivity
QVQLVESGGGLVQAGGSLRLSCAASGGIFAPYAMGWYRQAPGKERELVATISFSGGSTYYADSVKGRFTISRDNAKNTVYLQMNSLKPEDTAVYYCAKRYIYSLLYGLDYWGQGTQVTVSS	low polyreactivity
QVQLVESGGGLVQAGGSLRLSCAASGGIFASNAMGWYRQAPGKERELVATITRGGSTNYADSVKGRFTISRDNAKNTVYLQMNSLKPEDTAVYYCAARFYSRAFWTAYYYWGQGTQVTVSS	high polyreactivity
QVQLVESGGGLVQAGGSLRLSCAASGGIFAYYAMGWYRQAPGKERELVAAITSRGGRTYYADSVKGRFTISRDNAKNTVYLQMNSLKPEDTAVYYCAAEYINSNYQWYYYWGQGTQVTVSS	high polyreactivity
QVQLVESGGGLVQAGGSLRLSCAASGGIFDRYAMGWSRQAPGKERELVAVISGSVNTYADSVKGRFTISRDNAKNTFYLQMNSLKPEDTAVYYCATQFEGTSGFNYWGQGTQVTVSS	low polyreactivity
QVQLVESGGGLVQAGGSLRLSCAASGGIFFPNAIGWYRQAPGKERELVAAISWSAGSTYYADSVKGRFTISRDNAKNTVYLQMNSLKPEDTAVYYCAAAGSNYTVWYGYYYWGQGTQVTVSS	low polyreactivity
QVQLVESGGGLVQAGGSLRLSCAASGGIFFYYVMGWYRQAPGKERELVAAITSGGSTYYADSVKGRFTISRDNAKNTVYLQMNSLKPEDTAVYSCNGRDVVDYSVWSRYAYDYWGQGTQVTVSS	low polyreactivity
QVQLVESGGGLVQAGGSLRLSCAASGGIFGANAMGWYRQAPGKERELVAAITWRGGSTYYADSVKGRFTISRDNAKNTVYLQMNSLKPEDTAVYYCAKSFVRYKGRYYWGQGTQVTVSS	high polyreactivity
